Results on two molecules are retold here after EP3222635A1.

For assay [1], the target named is Soluble human P-selectin (human) (UniProt P16109). The assay can be described thus: SPR (SensiQ), antibody captured on protein G, soluble human P-selectin 100nM-1.56nM as analyte.
Assay [2] has the same target. The assay can be described thus: SPR (SensiQ), reference G1.

Chain of UniProt P16109 (P16109 42-771 limits assumed): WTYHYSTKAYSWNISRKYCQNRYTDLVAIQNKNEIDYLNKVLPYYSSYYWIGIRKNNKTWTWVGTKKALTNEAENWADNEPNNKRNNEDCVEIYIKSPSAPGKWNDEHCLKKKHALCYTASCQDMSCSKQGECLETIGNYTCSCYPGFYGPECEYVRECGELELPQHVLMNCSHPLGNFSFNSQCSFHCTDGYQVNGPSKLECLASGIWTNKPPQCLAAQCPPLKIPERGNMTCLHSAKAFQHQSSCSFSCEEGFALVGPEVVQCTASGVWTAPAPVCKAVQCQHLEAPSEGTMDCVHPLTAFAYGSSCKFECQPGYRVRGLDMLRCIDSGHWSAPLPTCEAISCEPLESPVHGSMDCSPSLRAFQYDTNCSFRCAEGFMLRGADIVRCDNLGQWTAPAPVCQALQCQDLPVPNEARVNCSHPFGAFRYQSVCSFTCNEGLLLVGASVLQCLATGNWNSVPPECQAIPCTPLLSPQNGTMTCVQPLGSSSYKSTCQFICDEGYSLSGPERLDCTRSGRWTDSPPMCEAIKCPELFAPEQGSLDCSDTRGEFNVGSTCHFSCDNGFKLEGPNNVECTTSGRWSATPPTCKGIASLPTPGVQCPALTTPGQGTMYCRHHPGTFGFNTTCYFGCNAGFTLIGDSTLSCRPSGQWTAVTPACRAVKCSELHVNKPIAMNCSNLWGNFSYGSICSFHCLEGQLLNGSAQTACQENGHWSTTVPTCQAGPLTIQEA

Consider “G1 mouse monoclonal anti-P-selectin antibody”, for which, in assay [1], the Kd is 8.94 nM, the koff was found to be 0.056 s⁻¹ and the kon worked out at 6.3e+06 M⁻¹ s⁻¹.

B1: hSel001 humanized IgG2 anti-P-selectin antibody (antibody, from another filing, V domains shown)
VH: QVQLVQSGAEVKKPGASVKVSCKVSGYTFTSYDINWVRQAPGKGLEWMGWIYPGDGSIKYNEKFKGRVTMTVDKSTDTAYMELSSLRSEDTAVYYCARRGEYGNYEGAMDYWGQGTLVTVSS
VL: DIQMTQSPSSLSASVGDRVTITCKASQSVDYDGHSYMNWYQQKPGKAPKLLIYAASNLESGVPSRFSGSGSGTDFTLTISSLQPEDFATYYCQQSDENPLTFGGGTKVEIKR
In assay [1], B1 returned an equilibrium dissociation constant (Kd) of 5.89 nM, a koff of 0.0131 s⁻¹ and an on-rate constant (kon) of 2.22e+06 M⁻¹ s⁻¹. In assay [2], this molecule returned a Ka (association constant) higher than G1 of 64.7% and an improvement in the binding affinity compared to G1 of 34%.
